Experimental data taken from article PMC7854179 (Molecules and Cells, 2021).

B1: HPV18 E7 conserved region 3 (residues 54-105), CR3_(18E7) (domain or fragment)
chain: AEPQRHTMLCMCCKCEARIKLVVESSADDLRAFQQLFLNTLSFVCPWCASQQ
B2: HPV16 E7 CR3 (residues 45-98) (domain or fragment)
chain: AEPDRAHYNIVTFCCKCDSTLRLCVQSTHVDIRTLEDLLMGTLGIVCPICSQKP
B3: human PTPN21 PTP domain (residues 873-1174), PTP_(PTPN21) (domain or fragment)
chain: EVATRATNDERCKILEQRLEQGMVFTEYERILKKRLVDGECSTARLPENAERNRFQDVLPYDDVRVELVPTKENNTGYINASHIKVSVSGIEWDYIATQGPLQNTCQDFWQMVWEQGIAIIAMVTAEEEGGREKSFRYWPRLGSRHNTVTYGRFKITTRFRTDSGCYATTGLKMKHLLTGQERTVWHLQYTDWPEHGCPEDLKGFLSYLEEIQSVRRHTNSTSDPQSPNPPLLVHCSAGVGRTGVVILSEIMIACLEHNEVLDIPRVLDMLRQQRMMLVQTLCQYTFVYRVLIQFLKSSRLI
B4: HPV11 E7 CR3 (residues 45-98) (domain or fragment)
chain: AQPLTQHYQILTCCCGCDSNVRLVVECTDGDIRQLQDLLLGTLNIVCPICAPKP
B5: HPV1a E7 CR3 (residues 39-93) (domain or fragment)
chain: LVSPQQPYAVVASCAYCEKLVRLTVLADHSAIRQLEELLLRSLNIVCPLCTLQRQ

How the values were obtained:
[1] = molecular target: the molecule itself; test: SEC-MALS
[2] = molecular target: T1, human PTPN14 PTP domain (residues 886-1187), PTP_(PTPN14) (human, UniProt Q15678 886-1187); test: SAXS
T1 sequence: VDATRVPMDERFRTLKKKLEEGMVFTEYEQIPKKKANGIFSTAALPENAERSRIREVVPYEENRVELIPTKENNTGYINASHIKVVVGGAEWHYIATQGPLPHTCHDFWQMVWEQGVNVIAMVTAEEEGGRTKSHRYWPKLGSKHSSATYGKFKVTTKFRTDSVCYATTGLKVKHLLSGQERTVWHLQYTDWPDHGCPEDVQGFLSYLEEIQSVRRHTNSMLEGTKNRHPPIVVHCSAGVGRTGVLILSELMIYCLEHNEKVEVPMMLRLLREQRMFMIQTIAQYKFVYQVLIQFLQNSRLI

[3] = molecular target: B3; test: ITC
[4] = molecular target: B1; test: SEC-MALS
[5] = molecular target: B2; test: SEC-MALS
[6] = molecular target: B5; test: SEC-MALS
[7] = molecular target: B4; test: SEC-MALS
[8] = molecular target: B1; test: SAXS

## B1
[1]
  stoichiometry N: 2
[2]
  binding result: binds
[3]
  Kd: 5.43 nM

## B2
[1]
  stoichiometry N: 2

## B3
[4]
  stoichiometry N: 1 PTP_(PTPN21) per E7 CR3 chain (2:2)
[5]
  stoichiometry N: 1 PTP_(PTPN21) per E7 CR3 chain (2:2)
[6]
  stoichiometry N: 1 PTP_(PTPN21) per E7 CR3 chain (2:2)
[7]
  stoichiometry N: 1 PTP_(PTPN21) per E7 CR3 chain (2:2)
[8]
  stoichiometry N: 1 PTP_(PTPN21) per CR3_(18E7) chain (2:2)

## B4
[1]
  stoichiometry N: 2

## B5
[1]
  stoichiometry N: 2
